Where “and” joins values, the source holds several entries; their conditions need not be identical. Equal values may be shown once.
T1: AORAa (Aor(AB)nC complex; FAD-containing subunit AorC) (Aromatoleum aromaticum, UniProt Q5P142)
T1 construct: same complex as P1, site in AorC; N-terminal twin-Strep-tag on AorA; expressed in Aromatoleum evansii; modelled Aor(AB)2C; with Aldehyde oxidoreductase, polyferredoxin-like iron-sulfur subunit AorA; Aldehyde oxidoreductase, tungsten-containing catalytic subunit AorB (aldehyde:ferredoxin oxidoreductase)
T1 sequence (Q5P142 1-424): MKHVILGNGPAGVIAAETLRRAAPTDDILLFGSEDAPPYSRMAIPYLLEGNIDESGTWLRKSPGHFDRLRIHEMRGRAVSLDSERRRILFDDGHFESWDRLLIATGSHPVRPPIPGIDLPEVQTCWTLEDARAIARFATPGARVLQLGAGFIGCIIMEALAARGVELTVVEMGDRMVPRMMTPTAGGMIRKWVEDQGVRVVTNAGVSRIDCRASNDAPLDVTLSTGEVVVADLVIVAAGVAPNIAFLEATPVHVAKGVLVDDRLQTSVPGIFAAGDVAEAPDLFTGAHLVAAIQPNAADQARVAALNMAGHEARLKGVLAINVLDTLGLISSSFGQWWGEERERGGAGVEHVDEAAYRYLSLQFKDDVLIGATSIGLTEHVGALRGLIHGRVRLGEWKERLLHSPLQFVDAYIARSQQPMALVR
T1 sequence (Q5P144 1-158 partner): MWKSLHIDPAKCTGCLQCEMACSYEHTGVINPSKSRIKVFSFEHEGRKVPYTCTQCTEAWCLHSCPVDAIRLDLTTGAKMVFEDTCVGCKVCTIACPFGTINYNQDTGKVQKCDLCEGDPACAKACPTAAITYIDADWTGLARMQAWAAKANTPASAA
T1 sequence (Q5P143 1-616 partner): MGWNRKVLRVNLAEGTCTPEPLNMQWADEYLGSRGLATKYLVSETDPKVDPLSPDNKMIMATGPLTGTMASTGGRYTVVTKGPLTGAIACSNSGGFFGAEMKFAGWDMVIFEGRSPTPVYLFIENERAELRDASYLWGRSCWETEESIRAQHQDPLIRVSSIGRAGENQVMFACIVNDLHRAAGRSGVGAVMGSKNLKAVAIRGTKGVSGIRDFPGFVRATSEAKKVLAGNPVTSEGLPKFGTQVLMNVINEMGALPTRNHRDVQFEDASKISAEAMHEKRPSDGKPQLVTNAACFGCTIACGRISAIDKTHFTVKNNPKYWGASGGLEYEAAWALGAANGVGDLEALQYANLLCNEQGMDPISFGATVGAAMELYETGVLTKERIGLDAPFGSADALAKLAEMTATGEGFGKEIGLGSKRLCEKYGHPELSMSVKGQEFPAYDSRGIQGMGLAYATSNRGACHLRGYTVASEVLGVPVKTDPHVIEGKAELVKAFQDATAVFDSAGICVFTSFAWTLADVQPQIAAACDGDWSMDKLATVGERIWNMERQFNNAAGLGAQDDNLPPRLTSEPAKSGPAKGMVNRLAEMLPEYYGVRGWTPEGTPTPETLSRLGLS

T2: AorA of the variant Δhelix-AOR, lacking the AorA residues from 138 to the C terminus (Aromatoleum aromaticum (strain DSM …, UniProt Q5P144))
T2 chain: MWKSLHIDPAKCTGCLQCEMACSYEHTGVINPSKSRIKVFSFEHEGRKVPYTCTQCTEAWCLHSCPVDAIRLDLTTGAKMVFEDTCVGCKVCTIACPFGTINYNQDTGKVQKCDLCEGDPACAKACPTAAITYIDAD

T3: AorB, catalytic tungsten-cofactor-containing subunit of the aldehyde oxidoreductase from Aromatoleum … (Aromatoleum aromaticum, UniProt Q5P143 1-616)
T3 construct: AorB of Aromatoleum aromaticum; benzoate seen in the active site; also called catalytic subunit; source: Aromatoleum evansii, heterologous expression of the AOR plasmid; Superdex 200 gel filtration for the wild-type complex, not for Δhelix-AOR
T3 sequence: T1 sequence (Q5P143 1-616 partner)

B1: AorC, FAD-containing NAD-binding subunit of the aldehyde oxidoreductase from Aromatoleum aromaticum (AORAa) (natural protein)
chain: T1 sequence (Q5P142 1-424)
notes: AorC of Aromatoleum aromaticum, Rossmann fold with an extended C-terminal domain of three α helices; A single copy per Aor(AB)nC complex; also called FAD-containing subunit; source: Aromatoleum evansii, heterologous expression of the AOR plasmid; Superdex 200 gel filtration for the wild-type complex, not for Δhelix-AOR
B2: AorA, polyferredoxin-like small subunit of the aldehyde oxidoreductase from Aromatoleum aromaticum (AORAa) (natural protein)
chain: T1 sequence (Q5P144 1-158 partner)
notes: Two to four copies per Aor(AB)nC complex; Carries four Fe4S4 clusters; also called small subunit AorA; electron transfer subunit; source: Aromatoleum evansii, heterologous expression of the AOR plasmid
B3: AorB, catalytic tungsten-cofactor-containing subunit of the aldehyde oxidoreductase from Aromatoleum aromaticum (AORAa) (protein)
chain: T1 sequence (Q5P143 1-616 partner)

Columns and labels:
[1] = molecular target: T1, AORAa (Aor(AB)nC complex; FAD-containing subunit AorC); assay: cryo-EM structure, […] A; format: binding; conditions: bound in AorC; Arg41 and Glu294 (Gln294 in figure legend)
[2] = molecular target: T4, AORAa (Aor(AB)nC complex; FAD-containing subunit AorC) (Aromatoleum aromaticum, UniProt Q5P142); assay: spectrophotometric specific activity; format: biochemical; conditions: hydrogen as electron donor; deletion-helix AOR
T4 construct: same complex as P1, site in AorC; N-terminal twin-Strep-tag on AorA; expressed in Aromatoleum evansii; modelled Aor(AB)2C; with Aldehyde oxidoreductase, polyferredoxin-like iron-sulfur subunit AorA; Aldehyde oxidoreductase, tungsten-containing catalytic subunit AorB (aldehyde:ferredoxin oxidoreductase)
T4 sequence (Q5P144 entry or part of it DEL138-156, one chain of several, further chain): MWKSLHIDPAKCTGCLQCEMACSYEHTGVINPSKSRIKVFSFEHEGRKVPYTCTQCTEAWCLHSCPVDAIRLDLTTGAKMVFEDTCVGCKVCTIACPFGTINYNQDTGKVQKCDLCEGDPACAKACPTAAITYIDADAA

[3] = molecular target: T2, AorA of the variant Δhelix-AOR, lacking …; assay: mass photometry of co-purified complex; seen only within the AorABC complex, with AorB present
[4] = molecular target: T3, AorB, catalytic …; assay: cryo-EM structure; purified AORAa complex, 0.7 mg/ml, 50 mM Hepes pH 7.5, glycerol below 2%; native and BS3 cross-linked samples prepared; 3.22 Å map of an Aor(AB)3C complex, model of Aor(AB)2C; conditions: both partners purified
[5] = molecular target: the molecule itself; assay: mass photometry; OneMP mass photometer, 10 mM tris pH 8.0, 100 mM KCl, 0.1 mM EDTA, room temperature, sample diluted 10-fold just before measurement; 50 nM in Fig. 2D, E
[6] = molecular target: B1; assay: cryo-EM structure; purified AORAa complex, 0.7 mg/ml, 50 mM Hepes pH 7.5, glycerol below 2%; native and BS3 cross-linked samples prepared; 3.22 Å map of an Aor(AB)3C complex, model of Aor(AB)2C; conditions: both partners purified
[7] = molecular target: T2, AorA of the variant Δhelix-AOR, lacking …; assay: mass photometry of co-purified complex

Molecule: Cc1cc2nc3c(=O)[nH]c(=O)nc-3n(C[C@H](O)[C@H](O)[C@H](O)COP(=O)(O)OP(=O)(O)OC[C@H]3O[C@@H](n4cnc5c(N)ncnc54)[C@H](O)[C@@H]3O)c2cc1C [FAD]
cryo-EM structure, 3.22 A [1]: The FAD cofactor was well resolved in the electron density

Molecule: NC(=O)c1ccc[n+]([C@@H]2O[C@H](COP(=O)(O)OP(=O)(O)OC[C@H]3O[C@@H](n4cnc5c(N)ncnc54)[C@H](O)[C@@H]3O)[C@@H](O)[C@H]2O)c1 [NAD^+]
specific activity [2]: NAD^+ reduction with hydrogen as an electron donor

Molecule: B1
binding result [3]: binds
binding result [4]: binds

Molecule: B2
stoichiometry N [5]: 2 and 3 and 4
binding result [4]: binds
binding result [6]: binds

Molecule: B3
binding result [7]: binds

From paper PMC10413684, “A bacterial tungsten-containing aldehyde oxidoreductase forms an enzymatic decorated protein nanowire” (Science Advances, 2023)
